Experimental data: article PMC7806825

Target: Recombinant ligand-binding domain of McpC (amino acid residues 35-189) (Salmonella enterica serovar Typhimurium SL1344)
Test: AUC; sedimentation velocity analytical ultracentrifugation (SV-AUC), done commercially (KBI BioPharma); purified McpC ligand-binding domain; dimers present at >=4 mg/mL; monomer to dimer

## Recombinant ligand-binding domain of McpC (amino acid residues 35-189) (domain or fragment)
  stoichiometry N: 2
